Laboratory results taken from article PMC2841647 (PLoS ONE, 2010).

Columns and labels:
[1] = target: T1, native TrkB receptors in cortical neurons (Mus musculus, UniProt P15209); assay: KIRA-ELISA (TrkB tyrosine phosphorylation) in primary cortical neurons; type: cell-based; settings: cortical neurons, with or without 4 nM BDNF
T1 construct: cortical neurons naturally express TrkB receptors; endogenous in cells; host or cells: primary cortical neurons from E16 mouse embryos
From the text: The human recombinant TrkB receptor was fluorescently tagged at its C-terminus with the Enhanced cyan fluorescent protein (rhTrkB-ECFP) by cloning the full human TrkB sequence (kindly provided by G. M. Brodeur) into the pECFP-N1 expression vector (Clontech). For inducible expression, rhTrkB-ECFP was subcloned into the tetracycline-responsive (TetOn) vector pTRE2 (Clontech). Chinese Hamster Ovary cells stably expressing rhTrkB-ECFP (TetOn-rhTrkB cells), were produced by transfection of the pTRE2-rhTrkB-ECFP plasmid into CHO-K1 TetOn cells (Clontech) followed by clone selection in 0.25 mg/ml hygromycin B (Invitrogen) and 0.1 mg/ml geneticin (G418; Invitrogen). Resistant cells were selected based on both fluorescence intensity and KIRA-ELISA profile after an overnight incubation in presence of 1000 ng/ml doxycycline (Clontech). Cortical neurons were prepared and cultured from E16 mouse embryos as described previously. The nnr5 PC12-TrkA, nnr5 PC12-TrkB and nnr5 PC12-TrkC cells (kindly provided by M. V. Chao) are NGF non-responding mutant PC12 cells stably transfected with TrkA, TrkB and TrkC cDNA, respectively.
TrkB activity was quantified using the previously described KIRA-ELISA assay with slight modifications. Cortical neurons were seeded on polyornithin-coated flat-bottom 96-well culture plates (12×10^4 cells per well) and cultured eight days at 37°C in 5% CO2. TetOn-rhTrkB cells were seeded on flat-bottom 96-well culture plates (4×10^4 cells per well) and incubated overnight with 1000 ng/ml doxycycline (Figs. S1,S2) except when indicated. Fluorescence levels in TetOn-rhTrkB cells were verified before each assay. […] Assay was stopped by removing the medium on ice and membranes were solubilized using KIRA-ELISA solubilization buffer (NaCl 150 mM, Hepes 50 mM, Triton X-100 0.5%, thimerosal 0.01%, sodium orthovanadate 2 mM, supplemented with a cocktail of protease inhibitors) for 1 h at room temperature. Solubilized membranes were transferred for 2 h at room temperature onto ELISA microtiter plate (Nunc Maxisorp) pre-coated overnight at 4°C with appropriate antibodies [polyclonal anti-GFP (1∶5000, Clontech) for TetOn-rhTrkB, polyclonal anti-TrkB (1 µg/ml, Upstate) for cultured neurons and brain slices, for phosphorylation assays; monoclonal anti-GFP (1∶3000, Chemicon) for TetOn-rhTrkB, monoclonal anti-TrkB (1∶1000, BD Biosciences) for cultured neurons and brain slices, for total TrkB quantification]. […] Absorbance was read at 450 nm after addition of 3,3′,5′,5-tetramethyl-benzidine substrate (Sigma) and acidification with 1N hydrochloric acid.
Concentration-response and competition curves were obtained using an iterative least-squares method derived from that of Parker & Waud (1971). […] Concentration-response curves and Eadie-Hofstee plots were analyzed using two-way ANOVA. Significance over time in locomotor activity studies was given using two-way ANOVA followed by Bonferroni's post-hoc test. […] One-way ANOVA followed by post-hoc Dunnett's test was used to evaluate statistical significance compare to saline group in EPM and FST procedures. n represents the number of independent experiments.

brain TrkB receptors = target: T2, brain TrkB receptors (Mus musculus, UniProt P15209); assay: In vivo KIRA-ELISA analysis after intravenous injection; settings: mice, i.v. 2×200 µg, 90-min interval
T2 construct: KIRA-ELISA analysis of brain TrkB receptors from mice; from tissue; host or cells: adult Swiss mouse brain, 300-µm coronal slices
T2 sequence (P15209 32-821): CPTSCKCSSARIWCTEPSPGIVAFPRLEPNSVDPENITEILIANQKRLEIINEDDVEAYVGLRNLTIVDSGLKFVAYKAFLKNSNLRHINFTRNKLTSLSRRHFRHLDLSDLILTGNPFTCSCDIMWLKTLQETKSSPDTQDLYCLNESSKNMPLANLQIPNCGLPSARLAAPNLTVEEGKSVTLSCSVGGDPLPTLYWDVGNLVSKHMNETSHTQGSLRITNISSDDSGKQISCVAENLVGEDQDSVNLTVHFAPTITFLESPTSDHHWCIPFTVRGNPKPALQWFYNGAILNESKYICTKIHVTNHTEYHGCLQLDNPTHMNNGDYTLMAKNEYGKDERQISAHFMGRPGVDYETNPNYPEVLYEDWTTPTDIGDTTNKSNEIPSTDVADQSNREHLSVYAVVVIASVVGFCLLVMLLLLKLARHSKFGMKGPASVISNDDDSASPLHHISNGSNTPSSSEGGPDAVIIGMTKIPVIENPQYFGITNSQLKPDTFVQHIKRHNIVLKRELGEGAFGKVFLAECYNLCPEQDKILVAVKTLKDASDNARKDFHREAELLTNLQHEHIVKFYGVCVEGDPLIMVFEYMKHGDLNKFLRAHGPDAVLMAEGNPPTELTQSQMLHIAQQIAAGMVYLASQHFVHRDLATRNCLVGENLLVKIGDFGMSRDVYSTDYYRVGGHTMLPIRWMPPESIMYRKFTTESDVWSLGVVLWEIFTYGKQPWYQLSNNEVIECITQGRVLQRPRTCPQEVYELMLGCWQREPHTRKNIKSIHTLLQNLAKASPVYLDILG
Protocol: Adult Swiss mice (20–25 g) received a double 90-min-interval i.v. injection of saline buffer, tat-cyclotraxin-B (2×200 µg) or tat-empty (2×200 µg). Three hours after the first injection, mice were decapitated, brains quickly removed on ice, 300-µm coronal sections were prepared with a vibratome at three levels (bregma 0.90 mm: caudate putamen/nucleus accumbens level; bregma −1.60 mm: dorsal hippocampus level; bregma −2.70 mm: ventral hippocampus level, see SI Fig. 8A ) and placed in a holding chamber for one hour. Slices were then incubated in Ringer's solution supplemented with tat-cyclotraxin-B or tat-empty (1 µM) in holding chamber saturated with 95% O2, 5% CO2. […] Experiments were stopped by quick removing of the medium on ice. […] Protein concentrations were determined and equal amounts of proteins were loaded in each well for KIRA-ELISA assays (see above). The following antibodies combination was used for phosphorylation assays: TrkB capture with polyclonal anti-TrkB (1 µg/ml); tyrosine phosphorylation quantification with biotinylated anti-phosphotyrosine (4G10, 0.5 µg/ml) and a streptavidin-peroxydase system (1∶4000). The following combination was used for total TrkB quantification: TrkB capture with monoclonal anti-TrkB (1∶1000); total TrkB quantification with polyclonal anti-TrkB (1 µg/ml). Absorbance at 450 nm was read after addition of TMB and acidification. […]

[2] = Brain localization after intravenous injections (immunohistochemistry); type: in vivo, mouse; settings: mice; four hours after the last intravenous injection; cortex, hippocampus, striatum, nucleus accumbens
Protocol: Mice were injected twice with 200 µg of biotinylated tat-cyclotraxin-B. […] Brains were postfixed for 1 h in 4% paraformaldehyde and cut in 40-µm sections with a vibratome. Sections obtained at the same levels as for in vivo KIRA-ELISA analysis (see Fig. S8) were rinsed in PBS and incubated in TBS containing 0.05% Tween-20 with VectaStain ABC Elite kit (Vector Laboratories). […] Non-injected mice were used as negative controls for endogenous biotin.

T1 sequence (P15209 32-821): as above

Sequence: YGRKKRRQRRRCNPMGYTKEGC [tat-cyclotraxin-B]
- TrkB inhibition compared with cyclotraxin-B [1]: similarly to cyclotraxin-B
- decrease in TrkB activity, injection (brain TrkB receptors): 50.9±3.1%
- detection in brain after intravenous injection [2]: detected in many brain structures
